Measured values as given in the supplement of paper PMC12042874.
± gives the uncertainty stated by the source.

Experiment: amyloid nucleation score (Sup35N fusion, yeast selection) (log enrichment); library NNK1; higher = more nucleation; inactive = no reads after selection
Summary of the method: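 The nucleation score, computed with DiMSum, is the log enrichment of output over input reads, centred on the mode score of non-aggregating sequences. Sequences with under 100 input reads were dropped. Reads were generated by Illumina sequencing of plasmid inserts from psi-negative yeast with Sup35N fused to peptides of 20 random codons, induced with 100 μM copper sulfate for 24 hours and grown 7 days at 30°C on medium lacking adenine and uracil.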
Substance RVSRFELAIVSVEGSYWVPE has an amyloid nucleation score of 0.607 ± 0.36. IKSGPPGRRQLFN gave an amyloid nucleation score of -0.741 ± 0.81. In the case of VMQFGVSGNAGC, the amyloid nucleation score is reported as 0.778 ± 0.55. Work on ICLLLCLVWDGCIATISNGL yielded an amyloid nucleation score of -1.39 ± 2.1. VVKSEVNTVA gave an amyloid nucleation score of 1.27 ± 0.62. For QRARIINRKHV, the amyloid nucleation score was 0.214 ± 0.74. RQGLSAGSRYIK showed an amyloid nucleation score of -0.311 ± 0.69. For LDHNGEGFFFKGSLFVNCLA, the amyloid nucleation score was -0.912 ± 1.6. In the case of FKMSWSTPARYNNGLTRLIF, the amyloid nucleation score is reported as -0.379 ± 0.63. Work on LFLCRILYCLWVNVFLLGHE yielded an amyloid nucleation score of 0.367 ± 0.32. Work on ILMYMWDKLNLYNIWFLRQV yielded an amyloid nucleation score of 0.263 ± 0.5. With PYVGPLMNFYHSMGMWWMYN the amyloid nucleation score was “inactive”. IEESSWLLDFRSGSALSEVS gave an amyloid nucleation score of -0.542 ± 0.86. Substance YPRPLWANRRPC has an amyloid nucleation score of -0.151 ± 0.66. AYILRWFFTSECRSVQSTSK showed an amyloid nucleation score of -0.105 ± 0.45. IHWANPLTVSAFKVWVEDMV showed an amyloid nucleation score of 0.256 ± 0.29. Work on ATLMYWASSWSCWFTKGTAV yielded an amyloid nucleation score of -0.413 ± 0.37. Substance VGSNYVCVI has an amyloid nucleation score of -0.545 ± 0.5. VFWGDKMSLLDLSVTNIMSI showed an amyloid nucleation score of 1.49 ± 0.4. For GPQIGG, the amyloid nucleation score was 1.38 ± 0.17. For IYEILKVTS, the amyloid nucleation score was “inactive”. In the case of GEVSRWRMCGLSLMEGRGLQ, the amyloid nucleation score is reported as 0.733 ± 0.44. Work on CFLIVHLNSRSDTCHEGSEC yielded an amyloid nucleation score of -0.081 ± 0.54. SVRCCRFGIGGYWP showed an amyloid nucleation score of -1.07 ± 1. Substance LLCTYISTEAPIVTFLRLTY has an amyloid nucleation score of -0.667 ± 0.44. With TQSRPLETGCPQLERSGLLA the amyloid nucleation score was -0.692 ± 0.81. Substance DTLIAWTGLVMFTSVERGCS has an amyloid nucleation score of -0.299 ± 0.37. Substance LRYSYTRDHSGTPYPSTGNS has an amyloid nucleation score of -0.74 ± 1.1. For QDLICVFMGCVIS, the amyloid nucleation score was 7.942 ± 0.044. Substance HERFLRIQRVHREKKCKVCL has an amyloid nucleation score of 0.267 ± 0.77. Work on SDYTYAFPCMRGWCWYFAVS yielded an amyloid nucleation score of -0.691 ± 1.7. Work on PGKSLIIHMCFSMSKTTENG yielded an amyloid nucleation score of 2.52 ± 0.08. Substance VRLCIVHHG has an amyloid nucleation score of 0.527 ± 0.49. In the case of PLTNRNIKIHYDLLSDDKMV, the amyloid nucleation score is reported as 0.602 ± 0.26. Work on CRSVVGVGSCRTGPEEGVYP yielded an amyloid nucleation score of -0.106 ± 1.7. For QIVCGSMWMLDKI, the amyloid nucleation score was -0.297 ± 0.49. QRMACWYLDKLESLSKLACM gave an amyloid nucleation score of 0.612 ± 0.82. Work on KDSGYMCWMGDLCVWSP yielded an amyloid nucleation score of 5.97 ± 0.097. With YNGVCSNW the amyloid nucleation score was 0.13 ± 0.48. For FVGGVSSERYLFGWLS, the amyloid nucleation score was -1.51 ± 1. Substance GQLSCLSFNVVTGRYKAIAF has an amyloid nucleation score of 0.629 ± 0.38. GLVSRLCRFHFMCIACNPKL showed an amyloid nucleation score of 0.585 ± 0.43. Work on IFITCIARTLYHAGNLQRNL yielded an amyloid nucleation score of 2 ± 0.11. YKCVYFGMETAVGNTAQERP gave an amyloid nucleation score of 0.861 ± 0.77. YFRVLGN gave an amyloid nucleation score of -0.011 ± 0.3. FSIKHPLSSGSKISCVA showed an amyloid nucleation score of -1.23 ± 1.7. In the case of RLSHKNGVCTLAFIYVPDNA, the amyloid nucleation score is reported as “inactive”. Work on IWIMWGYRSLDTMLHS yielded an amyloid nucleation score of 0.047 ± 0.77. EFSSKMSRMM showed an amyloid nucleation score of 0.268 ± 1.2. NFAYGVNYLSAVKGCFTFAR gave an amyloid nucleation score of -0.206 ± 1.5. In the case of WWGWKIDTNAQILARLCKCL, the amyloid nucleation score is reported as -0.005 ± 1.2. Work on SHPSKRLRTSKNVCACATNP yielded an amyloid nucleation score of -0.12 ± 0.4. Work on YHCLWGFVGVLKSDSLRDRR yielded an amyloid nucleation score of 0.602 ± 0.38. For QIRRGCRYFW, the amyloid nucleation score was -0.856 ± 1.1. For CTDVNSQ, the amyloid nucleation score was 0.033 ± 0.9. Substance TLCSSGKGRCLVAVT has an amyloid nucleation score of 0.115 ± 1. KFGDPSRAAILNMSGSISDK gave an amyloid nucleation score of -0.189 ± 0.46. With LRKCSLAVPYGLRLVYLRKE the amyloid nucleation score was 0.14 ± 0.54. ICLIAWGQ gave an amyloid nucleation score of 1.66 ± 0.41. ATSALGCVTHVIMSNILTMN showed an amyloid nucleation score of 0.106 ± 0.34. RALFSIHNTAEGLSERWAAL gave an amyloid nucleation score of 0.58 ± 1.2. For TKGYLWPRKQTAFVWIAMCG, the amyloid nucleation score was -0.187 ± 0.27. With NSAVYSCL the amyloid nucleation score was “inactive”. SEGMCIKLPVALNYSYVHLG showed an amyloid nucleation score of 3.36 ± 0.088. GSCLISRT showed an amyloid nucleation score of 1.02 ± 0.5. With VYKFIFAYYYSEDVPFNRPL the amyloid nucleation score was “inactive”. Work on TVHFSDWMIPNTRLEATCGM yielded an amyloid nucleation score of 0.158 ± 0.31. Work on RLSSPVSI yielded an amyloid nucleation score of 0.028 ± 0.68. For SDHRTW, the amyloid nucleation score was 0.743 ± 0.42. Work on VGNSSGWLTNHLAEKRGQTM yielded an amyloid nucleation score of 0.268 ± 1.1. With FHIRWE the amyloid nucleation score was “inactive”. LWGRGCMCWVVVARCFWPLR showed an amyloid nucleation score of -0.153 ± 1.4. Substance TRCKTGSLRLNYVDISQPHV has an amyloid nucleation score of 0.683 ± 0.8. With NGKDFWMSGRYAYVSMHFDR the amyloid nucleation score was 1.13 ± 0.31. Work on VFTACVCGRVEDISDCVPAL yielded an amyloid nucleation score of -0.071 ± 0.76. With SSILDHLAAFVRRWFVYALL the amyloid nucleation score was -0.591 ± 0.98. VMDGYVSGCFLWRCCNRNRS gave an amyloid nucleation score of 2.92 ± 0.12. For ENVYGWVG, the amyloid nucleation score was 1.09 ± 0.15. SSGPVFYKLPRLHCVGSHRH showed an amyloid nucleation score of 0.603 ± 0.5. RTPCLSESGPFSGFQHPGDI gave an amyloid nucleation score of -0.66 ± 1.2. Substance LYSVRLRSVSK has an amyloid nucleation score of -0.376 ± 0.25. Substance SHKRIWDIFNIGFHQCD has an amyloid nucleation score of 0.048 ± 0.59. Substance MVCTYNVRCIEMETRYPRSR has an amyloid nucleation score of 0.791 ± 0.97. With MQTVNFVFTRLIFISDFTIQ the amyloid nucleation score was 0.688 ± 0.26. With ININRNK the amyloid nucleation score was “inactive”. LCTDCLSGTVSDCRMFSHNR showed an amyloid nucleation score of -0.592 ± 0.75.
